This passage reports iScore results from patent US20090280138A1 (OXFORD BIOMEDICA UK, published 2009).

Common to all, as to experiment: iTopia, multiparametric iScore
Assay [1] concerns the target T1, MHC class I allele A*0201 monomer (human, biotinylated, bound to streptavidin-coated plate).
T1 construct: also called A2; HLA-A2
On the procedure: (§1) The 9 mers were tested for Peptide Binding, Off Rate and Affinity using iTopia Epitope Discovery System in accordance with the manufacturer's instructions. Briefly, 96 well microtitre plates coated with MHC molecules representing different MHC alleles are used to identify candidate peptides. […] Determinations are performed in duplicate using an ELISA plate reader and included allele specific positive controls.
(§2) Finally, multiparametric analysis is performed on the results from these assays and an iScore is generated. The iScore represents a measure of the overall quality of peptide-MHC binding, enabling candidate peptides to be ranked in order of binding quality and allowing rational prioritisation of peptides for functional cellular follow-up studies.

Assay [2] addresses T2, MHC class I allele A*0101 monomer (human, biotinylated, bound to streptavidin-coated plate).
T2 construct: placeholder peptide and b2M removed, then reconstituted with test peptide and fresh b2M; also called A1; HLA-A1
As to the method: as §1, §2

Assay [3] has as its target T3, MHC class I allele A*0301 monomer (human, biotinylated, bound to streptavidin-coated plate).
T3 construct: also called A3; HLA-A3
As to the method:
as §1, §2

In assay [4] the target is T4, MHC class I allele B*0702 monomer (human, biotinylated, bound to streptavidin-coated plate).
T4 construct: also called B7; HLA-B7
As to the method: as §1, §2

For the molecule EKMRNRVLL [5T4 9-mer peptide 164], the iScore is 0.096 in assay [1], 0 in assay [2], 0 in assay [3] and 0 in assay [4].

Consider LNSADLDCD [5T4 9-mer peptide 169], for which the iScore in assay [1], in assay [2], in assay [3] and in assay [4] was 0 each time.

As to ETEVVQGKD [5T4 9-mer peptide 156], the iScore in assay [1], in assay [2], in assay [3] and in assay [4] was 0 in each case.

As for DNALKVLHN [5T4 9-mer peptide 134], the iScore in assay [1], in assay [2], in assay [3] and in assay [4] was 0 each time.

LHNGTLAEL [5T4 9-mer peptide 137]: the iScore is 0.187 in assay [1], 0 in assay [2], 0 in assay [3] and 0.026 in assay [4].

As for LKETEVVQG [5T4 9-mer peptide 155], the iScore in assay [1], in assay [2], in assay [3] and in assay [4] was 0 in each case.

Take VQGKDRLTC [5T4 9-mer peptide 158]: the iScore in assay [1] amounted to 0.074; in assay [2], 0; in assay [3], 0; in assay [4], 0.

Turning to PWVCDCHMA [5T4 9-mer peptide 148], the iScore in assay [1], in assay [2], in assay [3] and in assay [4] was 0 throughout.

As to LDNNPWVCD [5T4 9-mer peptide 146], the iScore in assay [1], in assay [2], in assay [3] and in assay [4] was 0 each time.

For the molecule DCHMADMVT [5T4 9-mer peptide 150], the iScore in assay [1], in assay [2], in assay [3] and in assay [4] was 0 in each case.

In the case of TWLKETEVV [5T4 9-mer peptide 154], the iScore in assay [1] came to 0.184; in assay [2], 0; in assay [3] it was 0; in assay [4], 0.

As for CAYPEKMRN [5T4 9-mer peptide 162], the iScore in assay [1], in assay [2], in assay [3] and in assay [4] was 0 in each case.

As to ALKVLHNGT [5T4 9-mer peptide 135], the iScore came to 0.104 in assay [1], 0 in assay [2], 0 in assay [3] and 0 in assay [4].

Regarding MRNRVLLEL [5T4 9-mer peptide 165], the iScore in assay [1], in assay [2], in assay [3] and in assay [4] was 0 in each case.

Turning to IRVFLDNNP [5T4 9-mer peptide 144], the iScore in assay [1], in assay [2], in assay [3] and in assay [4] was 0 each time.

With LHLEDNALK [5T4 9-mer peptide 132], the iScore in assay [1], in assay [2], in assay [3] and in assay [4] was 0 each time.

Take GKDRLTCAY [5T4 9-mer peptide 159]: the iScore in assay [1], in assay [2], in assay [3] and in assay [4] was 0 in each case.

LQGLPHIRV [5T4 9-mer peptide 141]: the iScore in assay [1] was determined as 0.2; in assay [2], 0; in assay [3], 0; in assay [4], 0.

On to VFLDNNPWV [5T4 9-mer peptide 145], for which the iScore came out at 0.239 in assay [1], 0 in assay [2], 0 in assay [3] and 0 in assay [4].

On to AELQGLPHI [5T4 9-mer peptide 140], for which the iScore in assay [1], in assay [2], in assay [3] and in assay [4] was 0 in each case.

As to PHIRVFLDN [5T4 9-mer peptide 143], the iScore in assay [1], in assay [2], in assay [3] and in assay [4] was 0 throughout.

LELNSADLD [5T4 9-mer peptide 168]: the iScore in assay [1], in assay [2], in assay [3] and in assay [4] was 0 in each case.

Take LEDNALKVL [5T4 9-mer peptide 133]: the iScore in assay [1] was 0.122; in assay [2], 0; in assay [3], 0; in assay [4], 0.

Take NNPWVCDCH [5T4 9-mer peptide 147]: the iScore turned out to be 0 in assay [1], 0 in assay [2], 0.051 in assay [3] and 0 in assay [4].

As to NRVLLELNS [5T4 9-mer peptide 166], the iScore worked out at 0.031 in assay [1], 0 in assay [2], 0 in assay [3] and 0 in assay [4].

For SADLDCDPI [5T4 9-mer peptide 170], the iScore in assay [1], in assay [2], in assay [3] and in assay [4] was 0 each time.

For NGTLAELQG [5T4 9-mer peptide 138], the iScore in assay [1], in assay [2], in assay [3] and in assay [4] was 0 in each case.

VCDCHMADM [5T4 9-mer peptide 149]: the iScore worked out at 0.061 in assay [1], 0 in assay [2], 0 in assay [3] and 0 in assay [4].

With MVTWLKETE [5T4 9-mer peptide 153], the iScore in assay [1] worked out at 0.051; in assay [2], 0; in assay [3], 0; in assay [4] it was 0.

DLDCDPILP [5T4 9-mer peptide 171]: the iScore in assay [1], in assay [2], in assay [3] and in assay [4] was 0 each time.

As for ADMVTWLKE [5T4 9-mer peptide 152], the iScore in assay [1], in assay [2], in assay [3] and in assay [4] was 0 throughout.

Regarding TLAELQGLP [5T4 9-mer peptide 139], the iScore in assay [1] was 0.083; in assay [2] it was 0; in assay [3] it was 0; in assay [4], 0.

For the molecule KVLHNGTLA [5T4 9-mer peptide 136], the iScore in assay [1] worked out at 0.15; in assay [2], 0; in assay [3], 0; in assay [4], 0.

VLLELNSAD [5T4 9-mer peptide 167]: the iScore in assay [1] stood at 0.105; in assay [2] it was 0; in assay [3], 0; in assay [4], 0.

Regarding EVVQGKDRL [5T4 9-mer peptide 157], the iScore in assay [1] stood at 0.139; in assay [2], 0; in assay [3] it was 0; in assay [4], 0.

For the molecule DRLTCAYPE [5T4 9-mer peptide 160], the iScore in assay [1], in assay [2], in assay [3] and in assay [4] was 0 throughout.
